These results are taken from patent publication US20230183352A1 (published 2023).

Where two headings read alike, the source gives them in different places.

Assay [1] addresses T1, Claudin 18.2 (CLDN18.2), expressed on CHOS-CLDN 18.2 / HEK293-CLDN 18.2 / HCC827-CLDN 18.2 cells (human, UniProt P56856-2 1-261).
T1 construct: whole, on cells; The species is not repeated for the CHOS-CLDN 18.2 cells; also called claudin-18A2
Description: FACS, CHOS-CLDN18.2 cells. On the technique in general: Flow cytometry measures light scatter and fluorescence of single cells or particles in a stream.
Description: (§1) The initial concentration of the antibody was 20 μg/ml, it was diluted at 1:4, and incubated at 4° C. for 60 min.

Assay [2] deals with T1, Claudin 18.2 (CLDN18.2), expressed on …. Description: FACS, CHOS-CLDN18.2 cells, 1.250 µg/ml.
Description: as §1
The target is the same in assay [3]. Description: FACS, CHOS-CLDN18.2 cells, 0.020 µg/ml.
Description: as §1
Assay [4] has the same target. Description: FACS, CHOS-CLDN18.2 cells, 10 µg/ml.
Description: (§2) The initial concentration of the antibody was 20 μg/mkit was diluted at 1:4, and incubated at 4° C. for 60 min.
The target is the same in assay [5]. Description: FACS, CHOS-CLDN18.2 cells, 0.078 µg/ml.
Description: as §1
The target is the same in assay [6]. Description: FACS, CHOS-CLDN18.2 cells, 0.005 µg/ml.
Description: as §1
The target is the same in assay [7]. Description: FACS, CHOS-CLDN18.2 cells, 20 µg/ml.
Description: as §1
For assay [8] the target is unchanged. Description: FACS, CHOS-CLDN18.2 cells, 5 µg/ml.
Description: as §1
Assay [9] shares this target. Description: FACS, CHOS-CLDN18.2 cells, 0 µg/ml (background).
Description: as §1
For assay [10] the target is unchanged. Description: FACS, CHOS-CLDN18.2 cells, 0.313 µg/ml.
Description: as §1
Assay [11] has the same target. Description: FACS, MFI on CHOS-CLDN18.2 over MFI on CHOS-CLDN18.1, 10 µg/ml.
Description: as §2
The target is the same in assay [12]. Description: cell-based or functional assay.
Assay [13] shares this target. Description: FACS, CHOS-CLDN18.2 cells, 0 µg/ml (background). The source holds these as a separate data set.
Description: as §1
For assay [14] the target is unchanged. Description: FACS, CHOS-CLDN18.2 cells, 1.250 µg/ml. This is another data set of the same source.
Description: as §1
Assay [15] shares this target. Description: FACS, CHOS-CLDN18.2 cells, 20 µg/ml. This is another data set of the same source.
Description: as §1
Assay [16] shares this target. Description: FACS, CHOS-CLDN18.2 cells, 0.313 µg/ml. The source holds these as a separate data set.
Description: as §1
For assay [17] the target is unchanged. Description: FACS, CHOS-CLDN18.2 cells, 0.078 µg/ml. The source holds these as a separate data set.
Description: as §1
For assay [18] the target is unchanged. Description: FACS, CHOS-CLDN18.2 cells. The source holds these as a separate data set.
Description: as §1
Assay [19] shares this target. Description: FACS, CHOS-CLDN18.2 cells, 0.005 µg/ml. This is another data set of the same source.
Description: as §1
Assay [20] has the same target. Description: FACS, CHOS-CLDN18.2 cells, 5 µg/ml. The source holds these as a separate data set.
Description: as §1
Assay [21] has the same target. Description: FACS, CHOS-CLDN18.2 cells, 0.020 µg/ml. The source holds these as a separate data set.
Description: as §1

B1: QP14441441 (antibody, human IgG1, kappa, V domains shown)
VH: QVQLVQSGAEVKKPGASVKVSCKASGYAFSSYWMNWVRQAPGQGLEWIGQIYPGNGDTTYNGKFKGRVTMTADKSTSTVYMELSSLRSEDTAVYYCARFVKGNAMDYWGQGTLVTVSS
VL: DIVMTQSPDSLAVSLGERATISCKSSQSLLNSGNQKNYLTWYQQKPGQPPKLLIYWASTRESGVPDRFSGSGSGIDFTLTISSVQAEDVAVYYCQNAYSYPFTFGQGTKLEIKR
notes: Humanized from QP192193
One may read the EC50 as the concentration that produces a half-maximal response. Regarding B1, the EC50 in assay [1] worked out at 0.484 µg/mL. This molecule returned a max in assay [1] of 175000. Besides, the FACS reading in assay [2] was found to be 125000; in assay [3], 10100; in assay [5] it was 27300; in assay [6] it was 4230; in [7], 175000; in assay [8] it was 151000. For the same molecule, the FACS reading came out at 732 in [9] and 74700 in assay [10]. Besides, the MFI in assay [4] came out at 693000. The “CLDN18.2/CLDN18.1 (MFI ratio)” value in [11] worked out at 608.

B2: QP14451442 (antibody, human IgG1, kappa, V domains shown)
VH: QVQLVQSGAEVKKPGASVKVSCKASGYAFSSYWMNWVRQAPGQGLEWIGQIYPGNGDTTYNGKFKGRVTMTADKSTSTVYMELSSLRSEDTAVYFCARFVKGNAMDYWGQGTLVTVSS
VL: DIVMTQSPDSLAVSLGERATISCKSSQSLLNSGNQKNYLTWYQQKPGQPPKMLIYWASTRESGVPDRFSGSGSGIDFTLTISSVQAEDVAVYYCQNAYSYPFTFGQGTKLEIKR
notes: Humanized from QP192193
In the case of B2, a half-maximal effect in [1] (EC50) was put at 0.344 µg/mL. Moreover, in assay [1], the max was 177000. The FACS reading in assay [2] came out at 137000; in [3], 11100; in assay [5] it was 29800; in assay [6], 4790; in [7], 177000; in assay [8], 138000. Besides, the FACS reading was 732 in [9] and 82300 in [10]. In [4], the MFI was found to be 653000. Further, in [11], the “CLDN18.2/CLDN18.1 (MFI ratio)” value turned out to be 463.

B3: QP14451440 (antibody, human IgG1, kappa, V domains shown)
VH: QVQLVQSGAEVKKPGASVKVSCKASGYAFSSYWMNWVRQAPGQGLEWIGQIYPGNGDTTYNGKFKGRVTMTADKSTSTVYMELSSLRSEDTAVYFCARFVKGNAMDYWGQGTLVTVSS
VL: DIVMTQSPDSLAVSLGERATISCKSSQSLLNSGNQKNYLTWYQQKPGQPPKLLIYWASTRESGVPDRFSGSGSGTDFTLTISSLQAEDVAVYYCQNAYSYPFTFGQGTKLEIKR
notes: Humanized from QP192193; also called QP14401445
B3: in [12], the “EC50 of killing, ADCC (PBMC, HEK293-CLDN18.2 cells)” value was determined as 0.0082 µg/mL; the “Killing percentage, ADCC (PBMC, HEK293-CLDN18.2 cells), 0 µg/ml” value stood at 5.43%; the “Killing percentage, ADCC (PBMC, HEK293-CLDN18.2 cells), 0.0001024 µg/ml” value is -1.11%; the “Killing percentage, ADCC (PBMC, HEK293-CLDN18.2 cells), 0.000512 µg/ml” value worked out at 10%. In addition, in assay [12], the “Killing percentage, ADCC (PBMC, HEK293-CLDN18.2 cells), 0.00256 µg/ml” value stood at 10.8%; the “Killing percentage, ADCC (PBMC, HEK293-CLDN18.2 cells), 0.0128 µg/ml” value worked out at 28.5%; the “Killing percentage, ADCC (PBMC, HEK293-CLDN18.2 cells), 0.064 µg/ml” value worked out at 42.1%; the “Killing percentage, ADCC (PBMC, HEK293-CLDN18.2 cells), 0.32 µg/ml” value was 43.7%. In assay [12], the “Killing percentage, ADCC (PBMC, HEK293-CLDN18.2 cells), 1.6 µg/ml” value amounted to 37.8%; the “Killing percentage, ADCC (PBMC, HEK293-CLDN18.2 cells), 8 µg/ml” value was found to be 42.7%; the “Killing percentage, ADCC (PBMC, HEK293-CLDN18.2 cells), 40 µg/ml” value was found to be 47.8%. In [1], this molecule showed an EC50 of 0.223 µg/mL and a max of 169000. The molecule also showed an FACS reading in assay [2] of 123000. Further, the FACS reading in assay [3] amounted to 13800. For the same molecule, the MFI in assay [4] worked out at 620000. Also, in assay [5], the FACS reading was found to be 35400. This molecule displayed an FACS reading in assay [6] of 4930. The FACS reading in assay [7] was 169000. Moreover, the FACS reading in assay [8] amounted to 139000. In assay [9], this molecule had an FACS reading of 732. In addition, the FACS reading in assay [10] came to 104000. Moreover, in assay [11], the “CLDN18.2/CLDN18.1 (MFI ratio)” value amounted to 470.

B4: QP192193 (antibody, human IgG1, V domains shown)
VH: QVQLQQSGAELVRPGSSVKISCKASGYAFSSYWMNWVKQRPGQGLEWIGQIYPGNGDTTYNGKFKGQATLTADKSSSTVYMQLSSLTSEDSAVYFCARFVKGNAMDYWGQGTSVTVSS
VL: DIVMTQSPSSLTVTAGEKVTMSCKSSQSLLNSGNQKNYLTWYQQNPGQPPKMLIYWASTRESGVPDRFTGSGSGIDFSLTISSVQAEDLALYYCQNAYSYPFTFGSGTKLEIK
notes: Chimeric; also called 40F1; mouse-derived chimeric antibody QP192193
Take B4: in assay [1], the EC50 is 0.361 µg/mL. For the same molecule, in assay [1], the max was 177000. Besides, the FACS reading came to 168000 in [2]; 11400 in assay [3]; 27800 in assay [5]; 3790 in assay [6]; 155000 in assay [7]; 177000 in [8]. The figures for the FACS reading in assay [9] and in assay [10] were 732 and 74600, respectively. The same molecule showed an MFI in assay [4] of 644000. Also, the “CLDN18.2/CLDN18.1 (MFI ratio)” value in assay [11] turned out to be 627.

B5: QP201202 (antibody, human IgG1, V domains shown)
VH: EVQLQQSGPELVKPGASVKMSCKASGYTFTNYFVHWVKQKPGQGLEWIGYINPYNDDTKYNEKFKGKATLTSDKSSSTAYMDLSSLTSEDSAVYYCLSLRFFAYWGQGTLVTVSA
VL: DIVMTQSPSSLTVTAGEKVTMSCKSSQSLLNSGNQKNYLTWYQQKPGQAPKLLIYWASTRESGVPDRFIGSGSGTDFTLTISHVQAEDLAVYFCQNDYSYPLTFGAGTNLELK
notes: Chimeric; also called 44C6
Turning to B5, the FACS reading in assay [13] was determined as 732; in [14], 92700; in [15], 113000; in assay [16], 38000; in assay [17], 12600; in assay [19], 2260. The FACS reading stood at 81100 in assay [20] and 4770 in [21]. This molecule gave an MFI in assay [4] of 439000. In assay [18], the EC50 came out at 0.417 µg/mL. Further, the max in assay [18] was determined as 113000. Also, the “CLDN18.2/CLDN18.1 (MFI ratio)” value in assay [11] came to 381.
